Laboratory results published in PMC10206189, “Nanobody inhibitors of Plexin-B1 identify allostery in plexin–semaphorin interactions and signaling” (The Journal of Biological Chemistry, 2023).
Where two headings read alike, the source gives them in different places.

B6: mouse Plexin-B1 (20–535)-6xHis (domain or fragment, UniProt Q8CJH3 20-535, looked up)
chain: LRSPLPAAFTANGTHLQHLARDPTTGTLYVGATNFLFQLSPGLQLEAVVSTGPVNDSRDCLPPVIPDECPQAQPTNNPNQLLLVSPEALVVCGSVHQGICELRSLGQIRQLLLRPERPGDTQYVAANDPAVSTVGLVAQGLVGEPLLFVGRGYTSRGVGGGIPPITTRALRPPDPQAAFSYEETAKLAVGRLSEYSHHFVSAFVRGASAYFLFLRRDLKAPSRAFRAYVSRVCLQDQHYYSYVELPLACQGGRYGLIQAAAVATSKEVARGDVLFAAFSSVAPPTVDWPLSASTGASGTSVLCAFPLDEVDQLANYTRDACYTREGRAENGTKVADIAYDVLSDCAQLPVDTPDAFPCGSDHTPSPMVSCVPLEATPILELPGVQLTAVAVTMEDGHTIAFLGDSQGQLHRVYLGPGRSAAPYSKQSIQPGSPVNRDLTFDGTFEHLYVATQTTLVKVPVAPCAQHLDCDSCLAHRDPYCGWCVLLGRCSRRSECSRDQGPEQWLWSFQPELGCLR
notes: mouse Plexin-B1, sema and PSI1 domains (D1-2); For crystallography the N-linked glycans were trimmed to a single N-acetylglucosamine with EndoH; also called mPlexin-B1; mouse Plexin-B1 domains 1 and 2; source: Expi293F, secreted, purified (Excel HisTrap, Superdex 200)

Experiments:
[1] = molecular target: B6; assay: crystal structure; VHH15:mPlexin-B1 complex, EndoH-treated; 8% PEG 8000, 0.1 M sodium citrate pH 5.0, 1% dextran sulphate, 18 °C; conditions: both partners purified
[2] = molecular target: B6
[3] = molecular target: B6; assay: crystal structure; VHH14:VHH15:mPlexin-B1 ternary complex; 15% PEG 6000, 0.1 M sodium citrate pH 5.5, 3% dextran sulphate, 18 °C; conditions: both partners purified
[4] = molecular target: T1, VHH14-Fc (huarizo); assay: BLI; supernatants containing VHH-Fcs tested against mouse and human Plexin-B1; conditions: one partner purified
T1 construct: VHH cloned upstream of the Fc of human IgG1 (vector pHCMVi-Script HuIgG1 Fc); source: Expi293F, transfected; culture supernatant, and purified (HiTrap MabSelect, Superdex 200); not shown: Fc (human IgG1), C-terminal, kept

[5] = molecular target: T2, VHH15-Fc (huarizo); assay: as above; conditions: one partner purified
T2 construct: VHH cloned upstream of the Fc of human IgG1 (vector pHCMVi-Script HuIgG1 Fc); source: Expi293F, transfected; culture supernatant, and purified (HiTrap MabSelect, Superdex 200); not shown: Fc (human IgG1), C-terminal, kept

[6] = molecular target: T2, VHH15-Fc; assay: BLI; Octet RED384, 25 °C, 1× Kinetics buffer; purified VHH-Fc captured on Protein G biosensors, mouse Plexin-B1 in solution (VHH14-Fc: 10-3.75 nM, 1800 s association, 7200 s dissociation; VHH15-Fc: 160-10 nM, 600 s, 510 s); global 1:1 fit; conditions: both partners purified
[7] = molecular target: T1, VHH14-Fc; assay: BLI; first phase of the competition assay: 100 nM VHH-Fc on biotinylated murine Plexin-B1 held on streptavidin biosensors; by the order of the results the VHH-Fcs were still in supernatants; conditions: one partner purified
[8] = molecular target: T2, VHH15-Fc; assay: as above; conditions: one partner purified
[9] = molecular target: T3, Recombinant Sema4D (1–677) with C-terminal 6xHis-tag (human, UniProt Q92854 22-677); assay: BLI; competition assay, Octet RED384, 1× Kinetics buffer; biotinylated murine Plexin-B1 on streptavidin biosensors, 10 μg/ml human Sema4D with or without 100 nM VHH-Fc bound beforehand; conditions: both partners purified
T3 construct: signal peptide in the construct; human Sema4D, residues 1-677 cloned in pcDNA5 and expressed as a secreted protein; also called human Sema4D; source: Expi293F, purified as the Plexin-B1 constructs (Excel HisTrap, Superdex 200)
T3 sequence (looked up): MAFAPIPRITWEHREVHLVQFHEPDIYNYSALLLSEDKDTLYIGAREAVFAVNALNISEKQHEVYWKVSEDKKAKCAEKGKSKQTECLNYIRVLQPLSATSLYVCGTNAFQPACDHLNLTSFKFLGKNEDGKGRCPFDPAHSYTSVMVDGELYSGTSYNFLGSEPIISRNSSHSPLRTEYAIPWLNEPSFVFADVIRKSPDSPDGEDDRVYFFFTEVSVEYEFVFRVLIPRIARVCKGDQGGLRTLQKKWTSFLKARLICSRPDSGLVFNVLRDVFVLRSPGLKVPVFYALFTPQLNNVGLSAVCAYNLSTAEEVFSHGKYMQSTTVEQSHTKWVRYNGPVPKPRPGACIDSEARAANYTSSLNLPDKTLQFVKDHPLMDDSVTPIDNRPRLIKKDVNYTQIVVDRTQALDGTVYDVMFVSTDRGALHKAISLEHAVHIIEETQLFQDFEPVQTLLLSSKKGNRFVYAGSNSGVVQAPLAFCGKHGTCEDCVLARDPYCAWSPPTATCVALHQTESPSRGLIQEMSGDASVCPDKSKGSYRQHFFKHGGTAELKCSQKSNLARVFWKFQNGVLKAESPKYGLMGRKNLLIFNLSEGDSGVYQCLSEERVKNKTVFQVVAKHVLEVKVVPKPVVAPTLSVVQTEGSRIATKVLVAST

B1: VHH15-6xHis (VHH)
VHH: QVQLQESGGGLVQPGGSLRLSCAASGFRLDYYAIGWFRQAPGKEREGVLCISSSGGSINYADSVKGRFTISRDNAKNTVYLQMNSLKPEDTAVYYCGASSYNTQRAECYGMDYWGKGTQVTVSA
notes: VHH15; not shown: His6, C-terminal, kept
- binding result [1]: binds

B2: VHH13 (VHH)
VHH: QVQLQESGGGLVQAGGSLRLSCVASGFTFSSYAMGWYRRTPGNQQQLVATVSSSGTTYYGDSVKGRFTISRDNAKKTVYLQMNSLKPEDTAVYYCWRIGYWGQGTQVTVSA
- binding result [2]: binds

B3: VHH14-6xHis (VHH)
VHH: QVQLQESGGGLVQAGGSLRLSCAASGFTLGYYAIGWFRQAPGKEREEVSCINASGGSTFYEDSVKGRFTISRDNAKNTVFLQMNRLKPEDTAVYYCAAACEVVAVGYWGQGTQVTVSA
notes: VHH14
- binding result [3]: binds

B4: human Plexin-B1 (20–535) (domain or fragment, UniProt O43157 20-535, looked up)
chain: LQPLPPTAFTPNGTYLQHLARDPTSGTLYLGATNFLFQLSPGLQLEATVSTGPVLDSRDCLPPVMPDECPQAQPTNNPNQLLLVSPGALVVCGSVHQGVCEQRRLGQLEQLLLRPERPGDTQYVAANDPAVSTVGLVAQGLAGEPLLFVGRGYTSRGVGGGIPPITTRALWPPDPQAAFSYEETAKLAVGRLSEYSHHFVSAFARGASAYFLFLRRDLQAQSRAFRAYVSRVCLRDQHYYSYVELPLACEGGRYGLIQAAAVATSREVAHGEVLFAAFSSAAPPTVGRPPSAAAGASGASALCAFPLDEVDRLANRTRDACYTREGRAEDGTEVAYIEYDVNSDCAQLPVDTLDAYPCGSDHTPSPMASRVPLEATPILEWPGIQLTAVAVTMEDGHTIAFLGDSQGQLHRVYLGPGSDGHPYSTQSIQQGSAVSRDLTFDGTFEHLYVMTQSTLLKVPVASCAQHLDCASCLAHRDPYCGWCVLLGRCSRRSECSRGQGPEQWLWSFQPELGCLQ
notes: human Plexin-B1, sema and PSI1 domains; also called hPlexin-B1; source: Expi293F, secreted, purified (Excel HisTrap, Superdex 200)
- binding result [4]: no binding
- binding result [5]: no binding

B5: VHH16 (VHH)
VHH: QVQLQESGGDLVQAGGSLRLSCEVSGSSFDIYHWAWYRQVPGKEREWVATAYSAGTTHYADSVKGRFTISRDNAKNTVYLQMNSLIPEDTAVYFCNANIYWGRGTQVTVSA
- binding result [2]: binds

Binder: B6
- Kd [6]: 37.5 nM

B7: biotinylated mouse Plexin-B1 (20–535)-Avi-6xHis (domain or fragment, UniProt Q8CJH3 20-535, looked up)
chain: LRSPLPAAFTANGTHLQHLARDPTTGTLYVGATNFLFQLSPGLQLEAVVSTGPVNDSRDCLPPVIPDECPQAQPTNNPNQLLLVSPEALVVCGSVHQGICELRSLGQIRQLLLRPERPGDTQYVAANDPAVSTVGLVAQGLVGEPLLFVGRGYTSRGVGGGIPPITTRALRPPDPQAAFSYEETAKLAVGRLSEYSHHFVSAFVRGASAYFLFLRRDLKAPSRAFRAYVSRVCLQDQHYYSYVELPLACQGGRYGLIQAAAVATSKEVARGDVLFAAFSSVAPPTVDWPLSASTGASGTSVLCAFPLDEVDQLANYTRDACYTREGRAENGTKVADIAYDVLSDCAQLPVDTPDAFPCGSDHTPSPMVSCVPLEATPILELPGVQLTAVAVTMEDGHTIAFLGDSQGQLHRVYLGPGRSAAPYSKQSIQPGSPVNRDLTFDGTFEHLYVATQTTLVKVPVAPCAQHLDCDSCLAHRDPYCGWCVLLGRCSRRSECSRDQGPEQWLWSFQPELGCLR
modifications: biotin on the Avi-tag (BirA, in vitro)
notes: the Avi-tag stands between the C terminus of the fragment and the 6xHis-tag; source: Expi293F, secreted, purified as the unmodified version; biotinylated in vitro with BirA
- binding result [7]: binds
- binding result [8]: binds

B8: biotinylated mouse Plexin-B1 (20–535)-Avi-6xHis (domain or fragment, UniProt Q8CJH3 20-535, looked up)
chain: LRSPLPAAFTANGTHLQHLARDPTTGTLYVGATNFLFQLSPGLQLEAVVSTGPVNDSRDCLPPVIPDECPQAQPTNNPNQLLLVSPEALVVCGSVHQGICELRSLGQIRQLLLRPERPGDTQYVAANDPAVSTVGLVAQGLVGEPLLFVGRGYTSRGVGGGIPPITTRALRPPDPQAAFSYEETAKLAVGRLSEYSHHFVSAFVRGASAYFLFLRRDLKAPSRAFRAYVSRVCLQDQHYYSYVELPLACQGGRYGLIQAAAVATSKEVARGDVLFAAFSSVAPPTVDWPLSASTGASGTSVLCAFPLDEVDQLANYTRDACYTREGRAENGTKVADIAYDVLSDCAQLPVDTPDAFPCGSDHTPSPMVSCVPLEATPILELPGVQLTAVAVTMEDGHTIAFLGDSQGQLHRVYLGPGRSAAPYSKQSIQPGSPVNRDLTFDGTFEHLYVATQTTLVKVPVAPCAQHLDCDSCLAHRDPYCGWCVLLGRCSRRSECSRDQGPEQWLWSFQPELGCLR
modifications: biotin on the Avi-tag (BirA, in vitro)
notes: as for B7
- binding result [9]: binds

B9: VHH17 (VHH)
VHH: QVQLQESGGGLVQAGGSLRLSCVAAGIPFSAYAMSWYRQAPGKQRDHIATVSSGGTTYYADSVKGRFTISRDNAKNTVYLQMNSLKPEDTAVYFCNTEFALGNWGQGTQVTVSA
- binding result [2]: binds
